The supplement of paper PMC12042874
± gives the uncertainty stated by the source.

Assay: amyloid nucleation score (Sup35N fusion, yeast selection) (log enrichment); library NNK3; higher = more nucleation; inactive = no reads after selection
How it was run: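 The nucleation score, computed with DiMSum, is the log enrichment of output over input reads, centred on the mode score of non-aggregating sequences. Sequences with under 100 input reads were dropped. Reads were generated by Illumina sequencing of plasmid inserts from psi-negative yeast with Sup35N fused to peptides of 20 random codons, induced with 100 μM copper sulfate for 24 hours and grown 7 days at 30°C on medium lacking adenine and uracil.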

Substance	amyloid nucleation score
YMGEVCCIVVVTDHLCTVVI	inactive
NGFSTVTSSPGLCFLYRMFI	inactive
EGPVSGPC	inactive
WVVRYMDYSLMD	inactive
CGVCFYHIAWGSVHDTS	0.93 ± 0.16
LTTPVTR	-0.169 ± 0.63
LNAMWAWSRLDCNWGIQRNR	inactive
YICNY	inactive
FKAWMSLKLSTRRLNSCVPR	inactive
GPSPDPNRLP	-0.754 ± 1.3
WMDNAI	inactive
IMFSVRRLKSILSRVAWYNT	inactive
YSIDLFIRESDFDVHKKHIS	inactive
CAQTYPIRMYS	inactive
ACLFCLGDWEGFVSD	inactive
GPLFRLRMFL	inactive
KCGFLTSPHMFSLK	inactive
INRVHLYRLLKW	inactive
FVNSRVLWMIKIC	inactive
AGVVHRWGLQCFSLNFECGC	2.08 ± 0.079
YTGSVRFVEM	inactive
QNNTLGVSLVTFRGLVE	inactive
AATYTTYHLESSNVYSFNFW	2.96 ± 0.048
VKISPNAWALQLR	inactive
VSGYNW	inactive
IGTTEQ	inactive
MWSVLIRSTIDYAVPNWSRF	inactive

Substance	amyloid nucleation score
FYYWVGFCAGKAEDFRDLLC	inactive
RMVPKMSVCS	inactive
CHNVLWRLKRFHASRCTGDM	inactive
RLYRRSCVSSR	inactive
LFDHYWLGSWIVENSYPSGE	inactive
YPDNIFFCQSN	inactive
YIRELARPTLSRIKRLAPIS	inactive
SLCLASGFKRCNIV	-0.072 ± 0.8
VYESFLLMLFYFRSDCKKKR	inactive
QKMFVQDLILVLPVISRLV	inactive
DFSTDTHWKVWW	0.566 ± 0.43
YHAYRTGE	inactive
RTKIAFTRVLFATKLWNETN	inactive
TRAMHSFWFESDCKY	inactive
NNLFELPWKFYEQRNVAELM	inactive
EKYRNGGY	inactive
WHCVSFKLNDL	inactive
KKSHCRTIYKSLV	inactive
DVCLGWAQTAFRCLMRG	inactive
ESAKFYLYSAR	inactive
AMKPMKNRSASLVGN	inactive
VVSIAIGKYNDRSMWW	1.75 ± 0.071
YLKMLSVLKWRKNISRFVLP	inactive
NYVMRILILCSNGWLGRECV	inactive
DVTTDDSSFRYMLKLLRGIT	inactive
IYGVSESVYWIVWANIGVLQ	inactive
IPRYVWNVPRWYVYQFVCGA	0.27 ± 0.54

Substance	amyloid nucleation score
FIEVYCKMGCLRYLVWGWSD	inactive
FLHQGT	inactive
NKVSWIFNDSKGQGSV	-0.291 ± 1.3
VRNVKSNANCCFN	inactive
ATNLSYLNSAQVWLLT	inactive
FHSWIFQTISLPGQGYRLQ	inactive
PSTDSINDV	inactive
LRGSRYFWDWAPSYYFVHLR	inactive
WDAPKCNSVNYLLKDHYHRC	inactive
MLFANRHNLESGWSL	inactive
KCGRSR	inactive
FTMMCVYMSWQSGSQRTVTI	inactive
SICCKVRTSTYVRLCMLVLP	inactive
FWTKFC	inactive
VCVRYLFLFFSLIFYSGT	inactive
RSHECGGSLMFVKLGCG	inactive
SFIRASKVCFDSHGCWFGLG	inactive
FRSTGRKQELLLHSRKKQLP	inactive
IVRIVK	inactive
IQLICEAIAGFLYNVIFVVL	inactive
FFECSRRSSVLVQMS	inactive
HASSHYT	inactive
YASYGSKGGITTLRRIISGS	inactive
YHLSQAYDMKVYILNRCGLF	0.506 ± 0.38
RTPVKGDRKSWTDRPISTAY	inactive
EKFRWQSISIEVECSMAVQH	inactive
